# Data taken from the RNAGym collection of RNA variant scans (doi:10.7554/elife.90254).
# B1: OR4K15 (parent)
# chain: GUUAACGGUCAUAGGCCAUGGAAACUAGGAGCACCAUUUCGCUGCCAGUGAAGAAAUGAACAAAGAAAAUCUGGGCCAGGCAGGCAUCAAAAGAAAUAGUCUUGCGCUCAACCAGAAAGUCUGUAAUCAUUUUAAGGGUA
# Variants of: B1
# Experiment: self-cleavage, relative activity (ratio to wild type); higher = more cleavage; in vitro, sequencing; the parent is a self-cleaving ribozyme
row,Variant,self-cleavage
1,A22G G44A,1.2
2,U108C C109U,0.01
3,G1A A13G,1.29
4,U2G A96U,0.84
5,A24C U133A,1.76
6,A60G A94G,1.37
7,U9G A54G,1.44
8,G14U A63G,1.14
9,A30C,1.6
10,G48C A67G,1.37
11,A140U,1.12
12,G119U,1.82
13,C45U A114U,0.13
14,A30G A47U,1.27
15,G48A U102A,1.1
16,U49C A126G,1.26
17,A56G U108C,0.01
18,C34A A89U,1.63
19,A47G G58C,0.97
20,U72A U120C,0.18
21,U2C A118G,0.88
22,A54C,1.41
23,A62C U120C,0.93
24,A54G A89G,1.55

row,Variant,self-cleavage
1,U39C A69G,1.37
2,A126G U127A,1.77
3,C25U A89G,1.27
4,A55G G93U,1.76
5,A55C A126G,1.09
6,U26C U130C,0.3
7,A63U G99U,1.03
8,C17G A54G,0.86
9,A11U A92G,1
10,A69G A135U,1.45
11,A69U A92G,2.17
12,G53U A114U,0.19
13,A56G A78C,0.22
14,A5G U57C,0.68
15,A27G A33U,1.16
16,A22U A91G,0.68
17,C105G G136U,0.02
18,U37A U38G,2.08
19,A117G A126G,1.27
20,A82G C128U,0.33
21,A22G U108A,0.01
22,U97C U127A,0.81
23,A54U G115U,0.03
24,A4G U72A,0.22

row,Variant,self-cleavage
1,A78G A135G,0.19
2,G15C A24G,0.88
3,U108C U122G,0
4,A62U A90G,1.26
5,U9G A89G,1.46
6,U9A A22G,1.7
7,A82C A114G,0.05
8,U57A G75A,0.27
9,A55U A92G,1.36
10,C109U U130C,0.35
11,A54G U120A,1.89
12,U87C G123A,1.78
13,A11G A59U,0.98
14,C35A A36U,0.97
15,A82U G123A,0.19
16,A24C A47G,1.46
17,U39C U43C,1.57
18,U3C A91G,0.84
19,C40A A69G,1.65
20,U19C A135U,1.5
21,A51G U127A,2.09
22,U19C,1.17
23,A33G A92U,0.42
24,U57G A62G,0.83

row,Variant,self-cleavage
1,U49C C105A,0.03
2,A30U A36U,1.67
3,A54G U72C,0.23
4,A63G A67G,1.6
5,A11G A94U,1.2
6,U12C A54G,1.22
7,U97G A98G,1.98
8,A23U U102A,1.09
9,C34G,1.98
10,A47G U131C,0.71
11,C40A A89G,1.44
12,A60G G106A,0.02
13,A64G A68G,1.54
14,C10U A111G,0.07
15,A51G U72G,0.25
16,A23U U72A,0.41
17,A23G A110G,0.11
18,A116G A117U,0.44
19,A5U A67U,0.99
20,A116G A126U,1.04
21,U19A G137U,1.52
22,A24U U26C,2.46
23,U43C A78U,0.4
24,G1A U37C,1.61

row,Variant,self-cleavage
1,U70C U127C,0.35
2,G50U A51U,1.95
3,A66G U130A,0.6
4,A55G A125G,0.45
5,C61A A91C,2.41
6,C34U A94G,1.55
7,U100A A140U,0.83
8,A62U A67G,1.19
9,A90G A94U,1.93
10,A5G A52C,1.39
11,U72G A114C,2.51
12,U38C C105A,0.05
13,U9A U87C,0.85
14,A66U A82U,0.24
15,U26A A129G,1.36
16,A114G A134G,0.63
17,A78U U131C,0.17
18,A86G A116G,0.79
19,A5U A23U,1.56
20,G73U A78U,0.15
21,A89C A110G,0.18
22,A33G U57C,0.64
23,A11U A118U,0.51
24,C16U A90G,1.55

row,Variant,self-cleavage
1,A64U C113U,0.05
2,A63G A78G,0.31
3,U100C U103C,2.89
4,C17A G73A,0.16
5,U19G A69U,0.96
6,C40A A66G,1.69
7,A134G G137U,0.44
8,A30G G79A,0.17
9,A89U A129G,1.59
10,A78G A98U,0.39
11,G41U A55G,2.29
12,A11U C61A,1.92
13,U49G A118G,1.14
14,C10U G106C,0.03
15,A55U U133A,1.58
16,A51G C105U,0.12
17,G79A U108A,0.02
18,U97C A126G,1.22
19,A18C A22U,1.71
20,U49G A66G,1.77
21,U39G A96U,1.58
22,U39A A126G,1.59
23,U43C U120C,0.46
24,U49A A51G,1.02

row,Variant,self-cleavage
1,A90G A114G,0.16
2,U87C U120C,0.21
3,A66U,1.36
4,U122A U133C,2.07
5,G14A A22G,0.51
6,A4U A24G,0.76
7,A13G A118G,0.96
8,A36U U127C,0.93
9,A54G G123A,1.14
10,U39C A59G,1.51
11,A52G U57A,1.31
12,A96G A135U,2.17
13,A67G U103C,1.36
14,A86U A91U,1.77
15,G74A A96G,0.24
16,A56G A111G,0.01
17,C35U U70C,0.58
18,A59U U72C,0.17
19,C61U G138A,1.4
20,U87A A118G,1.26
21,A62U A116G,1.13
22,U70C U72A,0.21
23,U9C U132G,1.94
